Literature values in article PMC3977038.

Biological target: FcεRIα (Homo sapiens) (UniProt P12319)
Sequence (P12319 26-257): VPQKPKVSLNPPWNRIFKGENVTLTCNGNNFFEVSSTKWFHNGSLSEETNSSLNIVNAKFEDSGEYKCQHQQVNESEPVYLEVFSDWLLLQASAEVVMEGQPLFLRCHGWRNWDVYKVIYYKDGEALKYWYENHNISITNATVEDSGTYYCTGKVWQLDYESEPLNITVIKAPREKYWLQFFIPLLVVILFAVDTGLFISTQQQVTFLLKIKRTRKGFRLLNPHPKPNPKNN

Chain of IgE-Fc Fc (P01854 105-426): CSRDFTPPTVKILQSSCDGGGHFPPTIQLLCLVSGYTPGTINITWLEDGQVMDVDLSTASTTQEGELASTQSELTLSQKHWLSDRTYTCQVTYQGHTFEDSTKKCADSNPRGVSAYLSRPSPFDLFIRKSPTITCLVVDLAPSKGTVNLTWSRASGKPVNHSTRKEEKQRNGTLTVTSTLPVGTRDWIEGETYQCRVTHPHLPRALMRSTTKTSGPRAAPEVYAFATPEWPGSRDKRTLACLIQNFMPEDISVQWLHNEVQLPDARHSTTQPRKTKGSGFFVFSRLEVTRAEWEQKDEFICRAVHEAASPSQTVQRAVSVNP

Kd: 0.1 nM
Substance: IgE-Fc Fc (from UniProt P01854)
